In patent US20130059806A1 (REGENTS OF THE UNIVERSITY OF MICHIGAN, published 2013):

B1: transcriptional intermediary factor (TIF)-1beta (other, mouse, UniProt Q62318 2-834, looked up)
chain: AASAAATAAASAATAASAASGSPGSGEGSAGGEKRPAASSAAAASAAASSPAGGGGEAQELLEHCGVCRERLRPERDPRLLPCLHSACSACLGPATPAAANNSGDGGSAGDGAMVDCPVCKQQCYSKDIVENYFMRDSGSKASSDSQDANQCCTSCEDNAPATSYCVECSEPLCETCVEAHQRVKYTKDHTVRSTGPAKTRDGERTVYCNVHKHEPLVLFCESCDTLTCRDCQLNAHKDHQYQFLEDAVRNQRKLLASLVKRLGDKHATLQKNTKEVRSSIRQVSDVQKRVQVDVKMAILQIMKELNKRGRVLVNDAQKVTEGQQERLERQHWTMTKIQKHQEHILRFASWALESDNNTALLLSKKLIYFQLHRALKMIVDPVEPHGEMKFQWDLNAWTKSAEAFGKIVAERPGTNSTGPGPMAPPRAPGPLSKQGSGSSQPMEVQEGYGFGSDDPYSSAEPHVSGMKRSRSGEGEVSGLLRKVPRVSLERLDLDLTSDSQPPVFKVFPGSTTEDYNLIVIERGAAAAAAGQAGTVPPGAPGAPPLPGMAIVKEEETEAAIGAPPAAPEGPETKPVLMPLTEGPGAEGPRLASPSGSTSSGLEVVAPEVTSAPVSGPGILDDSATICRVCQKPGDLVMCNQCEFCFHLDCHLPALQDVPGEEWSCSLCHVLPDLKEEDGSLSLDGADSTGVVAKLSPANQRKCERVLLALFCHEPCRPLHQLATDSTFSMEQPGGTLDLTLIRARLQEKLSPPYSSPQEFAQDVGRMFKQFNKLTEDKADVQSIIGLQRFFETRMNDAFGDTKFSAVLVEPPPLNLPSAGLSSQELSGPGDGP
notes: also called TIF1β; TIF113
B2: MTA2 (other, mouse, UniProt Q9R190 1-668, looked up)
chain: MAANMYRVGDYVYFENSSSNPYLVRRIEELNKTANGNVEAKVVCLFRRRDISSSLNSLADSNAREFEEESKQPGVSEQQRHQLKHRELFLSRQFESLPATHIRGKCSVTLLNETDILNQYLDKEDCFFYSLVFDPVQKTLLADQGEIRVGCKFQAEIPDRLAEGESDNRNQQKMEMKVWDPDNPLTDRQIDQFLVVARAVGTFARALDCSSSIRQPSLHMSAAAASRDITLFHAMDTLQRNGYDLAKAMSTLVPQGGPVLCRDEMEEWSASEAMLFEEALEKYGKDFNDIRQDFLPWKSLASIVQFYYMWKTTDRYIQQKRLKAAEADSKLKQVYIPTYTKPNPNQIISVGSKPGMNGAGFQKGLTCESCHTTQSAQWYAWGPPNMQCRLCASCWIYWKKYGGLKTPTQLEGAARGTTEPHSRGHLSRPEAQSLSPYTTSANRAKLLAKNRQTFLLQTTKLTRLARRMCRDLLQPRRAARRPYAPINANAIKAECSIRLPKAAKTPLKIHPLVRLPLATIVKDLVAQAPLKPKTPRGTKTPINRNQLTQNRGLGGIMVKRSYETMAGAGVPFSANGRPLASGIRSSSQPAAKRQKLNPADAPNPVVFVATKDTRALRKALTHLEMRRAARRPNLPLKVKPTLMTVRPPVPLPASSHPASTNEPIVLED
notes: also called MTA1/2 (with MTA1)
B3: MTA1 (other, mouse, UniProt Q8K4B0 1-715, looked up)
chain: MAANMYRVGDYVYFENSSSNPYLIRRIEELNKTANGNVEAKVVCFYRRRDISSSLIALADKHATLSVCYRAGPGADTGEEGEVEEEVENPEMVDLPEKLKHQLRHRELFLSRQLESLPATHIRGKCSVTLLNETESLKSYLEREDFFFYSLVYDPQQKTLLADKGEIRVGNRYQADITDLLKEGEEDGRDQSKLETKVWEAHNPLVDKQIDQFLVVARSVGTFARALDCSSSVRQPSLHMSAAAASRDITLFHAMDTLHKNIYDISKAISALVPQGGPVLCRDEMEEWSASEANLFEEALEKYGKDFTDIQQDFLPWKSLTSIIEYYYMWKTTDRYVQQKRLKAAEAESKLKQVYIPNYNKPNPNQISASSVKATVVNGTGTPGQSPGAGRACESCYTTQSYQWYSWGPPNMQCRLCASCWTYWKKYGGLKMPTRLDGERPGPNRNNMSPHGIPARSSGSPKFAMKTRQAFYLHTTKLTRIARRLCREILRPWHAARHPYMPINSAAIKAECTARLPEASQSPLVLKQVVRKPLEAVLRYLETHPRPPKPDPVKSSSSVLSSLTPAKSAPVINNGSPTILGKRSYEQHNGVDGNMKKRLLMPSRGLANHGQTRHMGPSRNLLLNGKSYPTKVRLIRGGSLPPVKRRRMNWIDAPDDVFYMATEETRKIRKLLSSSETKRAARRPYKPIALRQSQALPLRPPPPAPVNDEPIVIED
notes: also called MTA1/2 (with MTA2)

Tests used:
Mi2β = target: T1, Mi2β (mouse, UniProt Q6PDQ2 1-1915); experiment: co-IP from untransfected MEL nuclear extract, immunoblot
T1 construct: also called Mi2beta; Mi213

[1] = target: B1; experiment: as above
MTA2 = target: B2; experiment: as above
MTA1 = target: B3; experiment: as above
CoREST = CoREST (mouse, UniProt Q8CFE3 1-480); experiment: as above
TR4 = target: T2, TR4 (mouse, UniProt P49117 1-596); experiment: co-IP from untransfected MEL nuclear extract, immunoblot (summary)
T2 construct: Endogenous protein, immunoprecipitated or detected with a rabbit polyclonal antibody; also called NR2C2
T2 sequence (looked up): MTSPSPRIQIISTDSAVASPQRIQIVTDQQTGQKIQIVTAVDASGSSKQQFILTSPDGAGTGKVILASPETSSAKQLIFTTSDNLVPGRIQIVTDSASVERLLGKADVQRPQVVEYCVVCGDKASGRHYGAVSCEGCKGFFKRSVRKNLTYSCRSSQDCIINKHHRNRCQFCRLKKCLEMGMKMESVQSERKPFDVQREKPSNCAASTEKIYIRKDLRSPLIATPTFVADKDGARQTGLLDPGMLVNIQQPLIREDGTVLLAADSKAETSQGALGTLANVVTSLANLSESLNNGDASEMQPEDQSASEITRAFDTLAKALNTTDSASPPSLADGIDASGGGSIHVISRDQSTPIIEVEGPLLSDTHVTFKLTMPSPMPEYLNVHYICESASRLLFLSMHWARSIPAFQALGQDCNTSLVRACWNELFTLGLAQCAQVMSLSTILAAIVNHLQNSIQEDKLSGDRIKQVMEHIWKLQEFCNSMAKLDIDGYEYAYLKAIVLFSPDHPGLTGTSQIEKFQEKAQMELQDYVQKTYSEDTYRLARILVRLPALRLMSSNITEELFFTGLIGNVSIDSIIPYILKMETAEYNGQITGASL

T1 sequence (Q6PDQ2 whole entry): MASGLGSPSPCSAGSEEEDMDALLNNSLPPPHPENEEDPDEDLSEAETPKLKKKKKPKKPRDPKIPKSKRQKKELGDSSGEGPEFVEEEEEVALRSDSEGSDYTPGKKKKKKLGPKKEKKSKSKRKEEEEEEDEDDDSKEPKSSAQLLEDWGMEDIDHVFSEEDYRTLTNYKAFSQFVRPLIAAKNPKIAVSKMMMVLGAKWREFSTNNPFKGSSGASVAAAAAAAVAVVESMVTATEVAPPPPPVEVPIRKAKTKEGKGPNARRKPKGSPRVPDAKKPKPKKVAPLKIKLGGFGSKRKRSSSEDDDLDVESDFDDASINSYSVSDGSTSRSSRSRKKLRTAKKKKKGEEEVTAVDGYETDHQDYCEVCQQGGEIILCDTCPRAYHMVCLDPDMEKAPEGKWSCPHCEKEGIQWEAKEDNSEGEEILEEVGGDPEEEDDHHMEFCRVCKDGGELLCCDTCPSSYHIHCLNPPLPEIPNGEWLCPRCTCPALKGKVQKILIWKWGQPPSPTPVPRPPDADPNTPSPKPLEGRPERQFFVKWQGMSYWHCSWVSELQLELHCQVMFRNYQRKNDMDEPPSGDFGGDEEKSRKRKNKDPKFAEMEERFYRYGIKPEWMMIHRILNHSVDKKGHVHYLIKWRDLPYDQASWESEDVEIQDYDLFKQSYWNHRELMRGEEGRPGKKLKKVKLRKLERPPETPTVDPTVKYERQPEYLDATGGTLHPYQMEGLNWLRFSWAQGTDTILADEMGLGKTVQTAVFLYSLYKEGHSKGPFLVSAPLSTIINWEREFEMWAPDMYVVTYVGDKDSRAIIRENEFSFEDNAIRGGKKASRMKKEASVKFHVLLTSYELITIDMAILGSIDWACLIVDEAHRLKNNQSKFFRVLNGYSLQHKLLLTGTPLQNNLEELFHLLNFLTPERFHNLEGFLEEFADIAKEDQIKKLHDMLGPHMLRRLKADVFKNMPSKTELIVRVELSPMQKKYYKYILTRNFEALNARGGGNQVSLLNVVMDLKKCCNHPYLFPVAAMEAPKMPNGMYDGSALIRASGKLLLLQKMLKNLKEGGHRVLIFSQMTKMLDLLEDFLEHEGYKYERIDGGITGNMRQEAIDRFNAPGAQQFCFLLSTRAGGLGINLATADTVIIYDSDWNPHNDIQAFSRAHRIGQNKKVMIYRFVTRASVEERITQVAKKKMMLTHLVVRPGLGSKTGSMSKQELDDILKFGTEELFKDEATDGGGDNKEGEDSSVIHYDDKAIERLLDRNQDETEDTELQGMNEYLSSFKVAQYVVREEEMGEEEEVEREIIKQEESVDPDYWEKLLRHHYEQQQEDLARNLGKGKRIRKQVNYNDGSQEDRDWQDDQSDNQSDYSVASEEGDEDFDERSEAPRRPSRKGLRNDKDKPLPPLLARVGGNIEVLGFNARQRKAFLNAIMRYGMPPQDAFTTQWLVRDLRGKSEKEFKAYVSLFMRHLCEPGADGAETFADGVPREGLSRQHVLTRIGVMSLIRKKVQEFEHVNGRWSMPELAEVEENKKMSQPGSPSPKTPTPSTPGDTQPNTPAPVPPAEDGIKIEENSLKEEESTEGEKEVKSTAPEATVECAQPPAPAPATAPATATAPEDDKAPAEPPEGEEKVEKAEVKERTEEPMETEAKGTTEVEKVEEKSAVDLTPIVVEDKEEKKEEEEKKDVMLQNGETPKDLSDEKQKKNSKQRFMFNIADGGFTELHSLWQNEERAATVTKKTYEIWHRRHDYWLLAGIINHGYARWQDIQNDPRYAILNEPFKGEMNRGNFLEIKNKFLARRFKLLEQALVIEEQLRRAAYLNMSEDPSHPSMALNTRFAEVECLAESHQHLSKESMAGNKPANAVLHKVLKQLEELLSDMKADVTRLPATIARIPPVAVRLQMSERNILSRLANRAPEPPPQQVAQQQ
CoREST, sequence (Q8CFE3 whole entry): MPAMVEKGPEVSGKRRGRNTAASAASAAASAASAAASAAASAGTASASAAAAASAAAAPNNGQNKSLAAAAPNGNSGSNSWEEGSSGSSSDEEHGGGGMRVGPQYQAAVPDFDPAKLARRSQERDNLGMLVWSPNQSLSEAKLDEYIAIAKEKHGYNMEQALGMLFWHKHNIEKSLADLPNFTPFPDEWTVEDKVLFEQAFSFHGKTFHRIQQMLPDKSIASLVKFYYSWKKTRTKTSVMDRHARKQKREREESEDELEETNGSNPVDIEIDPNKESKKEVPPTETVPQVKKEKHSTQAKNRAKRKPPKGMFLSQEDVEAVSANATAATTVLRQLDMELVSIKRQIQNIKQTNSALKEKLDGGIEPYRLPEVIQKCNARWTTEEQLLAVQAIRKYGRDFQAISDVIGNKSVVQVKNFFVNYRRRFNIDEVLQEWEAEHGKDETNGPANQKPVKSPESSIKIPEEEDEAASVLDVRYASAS

B1: no binding (Mi2β).

B2: no binding [1].

B3: no binding [1].

B4: HDAC3 (enzyme, mouse, UniProt O88895 1-428, looked up)
chain: MAKTVAYFYDPDVGNFHYGAGHPMKPHRLALTHSLVLHYGLYKKMIVFKPYQASQHDMCRFHSEDYIDFLQRVSPTNMQGFTKSLNAFNVGDDCPVFPGLFEFCSRYTGASLQGATQLNNKICDIAINWAGGLHHAKKFEASGFCYVNDIVIGILELLKYHPRVLYIDIDIHHGDGVQEAFYLTDRVMTVSFHKYGNYFFPGTGDMYEVGAESGRYYCLNVPLRDGIDDQSYKHLFQPVISQVVDFYQPTCIVLQCGADSLGCDRLGCFNLSIRGHGECVEYVKSFNIPLLVLGGGGYTVRNVARCWTYETSLLVEEAISEELPYSEYFEYFAPDFTLHPDVSTRIENQNSRQYLDQIRQTIFENLKMLNHAPSVQIHDVPADLLTYDRTDEADAEERGPEENYSRPEAPNEFYDGDHDNDKESDVEI
B4: no binding (Mi2β); no binding (MTA2); no binding (MTA1). B4: no binding [1]; no binding (CoREST).

B5: TR2 (receptor, mouse, UniProt Q505F1 1-590, looked up)
chain: MATIEEIAHQIIDQQMGEIVTEQQTGQKIQIVTALDHSTQGKQFILANHEGSTPGKVFLTTPDAAGVNQLFFTSPDLSAPHLQLLTEKSPDQGPNKVFDLCVVCGDKASGRHYGAITCEGCKGFFKRSIRKNLVYSCRGSKDCVINKHHRNRCQYCRLQRCIAFGMKQDSVQCERKPIEVSREKSSNCAASTEKIYIRKDLRSPLAATPTFVTDSETARSAGLLDSGMFVNIHPSGIKTEPAMLMAPDKAESCQGDLSTLASVVTSLANLGKAKDLSHCGGDMPVVQSLRNGDTSFGAFHHDIQTNGDVSRAFDTLAKALTPGESSACQSPEEGMEGSPHLIAGEPSFVEKEGPLLSESHVAFRLTMPSPMPEYLNVHYIGESASRLLFLSMHWALSIPSFQALGQENSISLVKAYWNELFTLGLAQCWQVMNVATILATFVNCLHSSLQQDKMSPERRKSLMEHIFKLQEFCNSMVKLCIDGHEYAYLKAIVLFSPDHPGLENMELIERFQEKAYVEFQDYITRTYPDDTYRLSRLLLRLPALRLMNATITEELFFKGLIGNVRIDSVIPHILKMEPADYNSQIIGHSL
notes: Endogenous protein, immunoprecipitated or detected with a rabbit polyclonal antibody; also called NR2C1
B5: binds (TR4).
